We go through one molecule from paper PMC11503491.

The test concerns the target SARS-CoV-2 RBD (RWT), wild-type Wuhan Hu-1 receptor-binding domain, residues 319-533 (SARS-CoV-2 Wuhan Hu-1). The test is described as follows: BLI.

B1: COVA2-15 (class 2 RBD-directed antibody) (antibody, V domains shown)
VH: QVQLLESGGGLVQPGGSLRLSCAASGFTFSSYAMSWVRQAPGKGLEWASAISGSGGSTYYADSVEGRFTISRDNSKNTLYLQMNSLRAEDTAVYYCAKDTGYCGDDCYIKLIRGGPDYWGQGTLVTVSS
VL: DIVMTQSPLSLPVTLGQPASISCRSSQSLVYSDGNTFLNWFQQRPGQSPRRLIYQVSNRDSGVPDRFSGSGSGTDFTLKISRVEAEDVGVYYCMQGTHWPRTFGQGTKLEIK
In turn, B1 came in with a koff of 0.0025 s⁻¹.
